Measurements published in patent US20250136718A1 (MABWELL THERAPEUTICS, published 2025).

T1: matriptase (ST14) over-expressed in HEK293T cells (human, UniProt Q9Y5Y6 1-855)
T1 construct: also called matriptase-1
T1 sequence: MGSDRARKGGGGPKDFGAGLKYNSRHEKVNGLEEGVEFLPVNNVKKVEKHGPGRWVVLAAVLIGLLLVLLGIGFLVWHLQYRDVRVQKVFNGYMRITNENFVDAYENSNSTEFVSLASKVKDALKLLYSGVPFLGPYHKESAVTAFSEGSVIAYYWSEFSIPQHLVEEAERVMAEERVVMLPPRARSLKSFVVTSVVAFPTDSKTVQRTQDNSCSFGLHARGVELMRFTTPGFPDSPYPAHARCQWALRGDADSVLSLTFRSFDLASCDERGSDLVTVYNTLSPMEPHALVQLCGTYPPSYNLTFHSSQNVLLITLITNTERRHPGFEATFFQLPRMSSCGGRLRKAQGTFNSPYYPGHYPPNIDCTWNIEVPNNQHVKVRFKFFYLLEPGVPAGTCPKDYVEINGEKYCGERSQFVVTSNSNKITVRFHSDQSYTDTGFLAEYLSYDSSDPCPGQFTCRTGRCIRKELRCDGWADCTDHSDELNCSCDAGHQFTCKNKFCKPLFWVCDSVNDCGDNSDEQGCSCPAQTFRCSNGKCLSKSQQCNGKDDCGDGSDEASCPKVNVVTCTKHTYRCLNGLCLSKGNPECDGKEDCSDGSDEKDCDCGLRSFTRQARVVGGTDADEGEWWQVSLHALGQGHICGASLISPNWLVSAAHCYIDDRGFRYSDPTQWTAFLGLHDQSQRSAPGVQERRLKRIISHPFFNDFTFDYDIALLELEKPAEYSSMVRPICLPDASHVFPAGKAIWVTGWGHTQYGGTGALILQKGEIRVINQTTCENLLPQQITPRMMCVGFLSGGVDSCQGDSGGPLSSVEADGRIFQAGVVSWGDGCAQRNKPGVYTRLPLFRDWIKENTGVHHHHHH

T2: matriptase-3 (TMPRSS7) over-expressed in HEK293T cells (human, UniProt Q7RTY8 1-843)
T2 sequence: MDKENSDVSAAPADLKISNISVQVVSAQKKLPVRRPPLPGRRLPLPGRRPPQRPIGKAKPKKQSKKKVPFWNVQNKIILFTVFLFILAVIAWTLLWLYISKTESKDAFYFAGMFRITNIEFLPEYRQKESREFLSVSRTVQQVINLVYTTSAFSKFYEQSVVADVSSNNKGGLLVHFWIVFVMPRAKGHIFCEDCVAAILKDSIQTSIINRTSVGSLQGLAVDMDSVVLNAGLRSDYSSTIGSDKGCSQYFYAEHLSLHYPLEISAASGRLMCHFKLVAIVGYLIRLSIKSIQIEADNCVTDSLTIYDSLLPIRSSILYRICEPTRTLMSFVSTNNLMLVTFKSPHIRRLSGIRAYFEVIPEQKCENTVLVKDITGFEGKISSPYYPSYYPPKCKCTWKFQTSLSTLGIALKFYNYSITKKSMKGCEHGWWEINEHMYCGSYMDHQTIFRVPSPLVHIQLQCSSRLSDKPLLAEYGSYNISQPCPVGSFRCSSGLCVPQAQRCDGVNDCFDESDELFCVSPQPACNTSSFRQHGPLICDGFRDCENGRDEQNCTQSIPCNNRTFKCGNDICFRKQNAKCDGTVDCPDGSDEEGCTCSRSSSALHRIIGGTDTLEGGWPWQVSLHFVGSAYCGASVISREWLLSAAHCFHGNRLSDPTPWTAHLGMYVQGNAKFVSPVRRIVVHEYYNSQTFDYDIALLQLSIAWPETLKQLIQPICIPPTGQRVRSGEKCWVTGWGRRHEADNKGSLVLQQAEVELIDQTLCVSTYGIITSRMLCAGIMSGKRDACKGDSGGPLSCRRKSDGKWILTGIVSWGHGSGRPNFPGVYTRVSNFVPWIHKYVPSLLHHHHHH

B1: humanized anti-TMPRSS6 antibody variant hzMWTx-002 Var (antibody, human IgG1, kappa, N297A, V domains shown)
VH: EVQLVQSGAEVKKPGASVKVSCKASGFNIKDYYIHWVRQATGQGLEWMGRIDPEDAESEYAPKFQGRVTITADTSTDTAYMELSSLRSEDTAVYYCTRGDSMMVTYFDYWGQGTLVTVSS
VL: DIQMTQSPSSLSASVGDRVTITCKASQDVSTAVAWYQQKPGKAPKLLIYWAFTRHTGVPSRFSGSGSGTDYALTISSLQPEDFATYYCQQHYRSPWTFGGGTKVEIKR
notes: Human IgG1 / kappa
B2: humanized anti-TMPRSS6 antibody variant hzMWTx-001 Var (antibody, human IgG1, kappa, N297A, V domains shown)
VH: EVQLVQSGAEVKKPGASVKVSCKASGYTFTSYWITWVRQAPGQRLEWIGNIYPGSGSTYYNEKFKSKATITRDTSSRTAYMELSSLRSEDTAVYYCAPYDADYAMDYWGQGTLVTVSS
VL: DIQMTQSPSSLSASVGDRVTITCKASQDISNYLSWFQQKPGKAPKLLIYRANRLVEGVPSRFSGSGSGTDFTLTISSLQPEDFATYFCLQYDEFPLTFGGGTKVEIKR
notes: Human IgG1 / kappa
B3: MWTx-002 anti-TMPRSS6 monoclonal antibody (antibody, mouse IgG2b, kappa, V domains shown)
VH: EVQLQQSGAELVKPGASVKLSCTASGFNIKDYYIHWVKERTEQGLEWFGRIDPEDGESEYAPKFQGKATLTADTSSNTAYLQLSSLTSEDTAVYYCTRGDSMMVTYFDYWGQGTTLTVSS
VL: DIVMTQSHKFMSTSVGDRVSITCKASQDVSTAVAWYQQKPGQSPKLLIYWAFTRHTGVPDRFTSTGSGTDYALTISSVQAEDLALYYCQQHYRSPWTFGGGTKLEIKR
notes: Mouse monoclonal antibody from hybridoma (ATCC PTA-126760)
B4: MWTx-003 anti-TMPRSS6 monoclonal antibody (antibody, mouse IgG2b, kappa, V domains shown)
VH: EVQLQQSGAELVKPGASVKLSCTASGFNIEDYYIHWVKERTEQGLEWIGRIDPEDGETTYAPQFQGKATIIPDTSSNTAYMQLSSLTSEDAAVYYCARSIYLDPMDYWGQGTSVTVSS
VL: DIVMTQSHKFMSTSVGDRVSITCKASQDVTTAVAWYQQKPGQSPKILIYWATTRHTGVPDRFTGSISGTTYILTISSVQAEDLALYYCQQHYSTPYTFGGGTKLEIKR
notes: Mouse monoclonal antibody from hybridoma (ATCC PTA-126761); The recombinant version r4K12B has the same HC and LC; also called r4K12B; recombinant MWTx-003
B5: MWTx-001 anti-TMPRSS6 monoclonal antibody (antibody, mouse IgG2a, kappa, V domains shown)
VH: QVQLQQPGAELAKPGASVKMSCKASGYTFTSYWITWVKQRPGQDLEWIGNIYPGSGSTYYNEKFKSKATLTVDTSSRTAYMQLSSLTSADSAVYYCAPYDSDYAMDYWGQGTSVTVSS
VL: DIKMTQSPSSMYASLGERVTITCKASQDINNYLSWFQQKPGKSPKTLIYRANRLVDGVPSRVSGSGSGQDYSLTISSLEYEDVGIYFCLQYDEFPLTFGAGTKLELKR
notes: Mouse monoclonal antibody from hybridoma (ATCC PTA-126759)
B6: humanized anti-TMPRSS6 antibody variant hzMWTx-003 Var (antibody, human IgG1, kappa, L234A L235A, V domains shown)
VH: QVQLVQSGAEVKKPGASVKVSCKASGFNIEDYYMHWVRQAPGQRLEWMGRIDPEDAETTYSPKFQGRVTIIPDTSANTAYMELSSLRSEDTAVYYCARSIYLDPMDYWGQGTLVTVSS
VL: DIQMTQSPKSLSASVGDRVTITCRASQDVTTALAWYQQKPGQSPKLLIYWATTRHSGVPSRFSGSGSGTDFTLTISSLQPEDFATYYCQQHYSTPYTFGQGTKLEIKR
notes: Human IgG1 / kappa

What follows are binders tested against T1, matriptase (ST14) over-expressed in … (assay: FACS on permeabilized HEK293T cells over-expressing matriptase (ST14)).
Excerpt: (§1) To determine if anti-TMPRSS6 antibodies bind to homologous matriptases, HEK293T cells over-expressing matriptase (ST14) (SEQ ID NO: 100) (FIGS. 5B, 5E, 5H, 5K, 5N, 5Q), and HEK293T cells over-expressing matriptase-3 (TMPRSS7) (SEQ ID NO: 101) (FIGS. 5C, 5F, 5I, 5L, 5O, 5R) were collected (generated in house). HEK293T cells stably expressing human TMPRSS6 (matriptase-2) (SEQ ID NO: 97) (generated by LakePharma Inc as described above, FIGS. 5A, 5D, 5G, 5J, 5M, 5P) were used as a positive control and HEK293T cells (FIGS. 5A-5R) were used as a negative control (as described above). Cells were blocked and permeabilized with dPBS+3% BSA+0.1% Tween-20 before incubation with various anti-TMPRSS6 antibodies diluted in dPBS+3% BSA+0.1% Tween-20. Cells were incubated with anti-TMPRSS6 antibodies and their humanized variants at a concentration of roughly 1 μg/ml for 1 hr. After incubation, cells were washed with dPBS and incubated with goat anti-mouse IgG conjugated with AlexaFluor-488 (Invitrogen, FIGS. 5A-5I) or goat anti-human IgG conjugated with Allophycocyanin (APC) (Jackson Immuno Research, FIGS. 5J-5R) as a 2° antibody. At last, cells were washed with dPBS and re-suspended with dPBS+1 mM EDTA, and then subjected to FACS analysis using a NOVOCYTE® Flow Cytometer. Bound antibody was determined by excitation at 488 nm and measurement of emission (FITC-A) at 530 nm (FIGS. 5A-5I) or by excitation at 640 nm and measurement of emission (APC-A) at 675 nm (FIGS. 5J-5R). Results for these assays are shown in histogram plots in FIGS. 5A-5R.

binding result | Binder
no binding (tested: roughly 1 µg/ml) | B1
no binding (tested: roughly 1 µg/ml) | B2
no binding (tested: roughly 1 µg/ml) | B3
no binding (tested: roughly 1 µg/ml) | B4
no binding (tested: roughly 1 µg/ml) | B5
no binding (tested: roughly 1 µg/ml) | B6

Each binder was assayed against T2, matriptase-3 (TMPRSS7) over-expressed … (assay: FACS on permeabilized HEK293T cells over-expressing matriptase-3 (TMPRSS7)).
Excerpt: as §1

binding result | Binder
no binding (tested: roughly 1 µg/ml) | B1
no binding (tested: roughly 1 µg/ml) | B2
no binding (tested: roughly 1 µg/ml) | B3
no binding (tested: roughly 1 µg/ml) | B4
no binding (tested: roughly 1 µg/ml) | B5
no binding (tested: roughly 1 µg/ml) | B6
